This experiment concerns the target human CD40 protein (human, UniProt P25942 21-193, limits assumed). Kind of experiment: ELISA screening of hybridoma wells against human CD40 protein. How it is done: Antibodies were created by electrofusion of human CD40-immunized mouse splenocytes (Balb/c strain) with SP2/0-A14 cells (ATCC) (Immunization procedure; dose, adjuvants, time course). Fused cells were seeded into 96-well plates and ELISA screening was conducted to identify wells that contain antibodies which interact with the human CD40 protein. Positive wells were further expanded and followed a limited dilution to isolate monoclonal hybridomas. Purified antibodies were used to test their ability to trigger CD40 signaling by an in-house created reporter system. Basically, an engineered 293T cell line was transduced to stably express the human CD40 protein. When testing the agonistic functions of CD40 antibodies, DNA plasmids of an NF-kB-driven luciferase reporter and Fc-gamma receptors were transiently transfected into established CD40-293T cells. Antibodies to be tested were added to the culture and incubated for 24 hours. Treated cells were harvested, lysed and analyzed on a plate reader for the activity of luciferase. Anti-human CD40 mAb clone #1E10-H2 and clone #2G9-B11 were tested binding to and activating human CD40. The sequences of the IgG heavy chain and light chain variable domains of anti-human CD40 agonistic mAb clone #1E10-H2 are shown in FIG. 1.
In general terms: An ELISA detects its analyte on a solid surface through an enzyme-linked reagent.

2 molecules from patent US20210115149A1 (ABVISION, published 2021) can be followed below.

Chain of human CD40 protein (P25942 21-193 limits assumed): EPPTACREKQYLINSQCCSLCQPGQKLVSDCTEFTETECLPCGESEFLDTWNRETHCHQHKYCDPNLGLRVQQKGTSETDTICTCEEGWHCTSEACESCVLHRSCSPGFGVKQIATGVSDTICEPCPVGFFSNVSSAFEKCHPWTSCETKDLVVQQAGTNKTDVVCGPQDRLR

B1: Anti-human CD40 mAb clone #2G9-B11 (antibody, mouse IgG1, V domains shown)
VH: EVQLVESGGGLVKPGGSLKLSCAASGFSFSSYAMSWVRQTPEKRLEWVATISSGGDYTYYPDSVKGRFTISRDNAKNTLYLQMTSLRSEDTAMYYCARRNHFTYWGQGTLVTVSA
VL: DIVMTQSHKFMSTSVGDRVSITCKASQDVVTSVAWYQQKPGQSPKLLIYWTSTRHTGVPDRFTGSGSGTDFTLTISNVQSEDLADYFCQQYSSYPLTFGAGTKLELK
notes: Mouse hybridoma monoclonal antibody (Balb/c), purified; also called anti-CD40 2G9-B11
As to B1, the binding result is recorded as “binds”.

B2: Anti-human CD40 mAb clone #1E10-H2 (antibody, V domains shown)
VH: QVQLQQSGAELMKPGASVKISCKATGYTFSSYWIEWIKQRPGHVLEWIGEILPGSGSANYNERFKGKATFTADTSSNTAYMQLTSLTSEDSAVYYCARLRYYGSSPWFAYWGQGTLVTVSA
VL: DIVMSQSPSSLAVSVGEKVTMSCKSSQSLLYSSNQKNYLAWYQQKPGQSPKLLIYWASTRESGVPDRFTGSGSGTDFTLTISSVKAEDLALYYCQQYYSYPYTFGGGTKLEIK
notes: Mouse hybridoma monoclonal antibody (Balb/c), purified; also called anti-human CD40 agonistic mAb (clone #1E10-H2)
On to B2, for which the binding result is recorded as “binds”.
